The labels stand for the following.
B1: AB5 (antibody, V domains shown)
VH: EVQLQQSGPELVKPGASVKMSCKASGYIFTHYIMHWVKQKPGQGLEWIGCINPYNDGTKYNEKFKGKATLTSDKSSSTAYMELSSLTSEDSAVYYCARYYGYPYYSMDYWGQGTSVTVSS
VL: DVLMTQTPLSLPVSLGDQPSISCRSSQSIVHSNGNTYLDWYLQKPGQSPKLLIYKVSNRFSGVPDRFSGSGSGTDFTLKISRVEAEDLGVYYCFQGSHVPFTFGSGTRLEIK
notes: full-length IgG (ExpiCHO)
B2: AB1 (antibody, V domains shown)
VH: QVQLQQSAAELARPGASVKMSCKASGYTFTTYTMHWVKQRPGQGLEWIGFINPSSGYTDYNQKFKDRTTLTADKSSSTVYMQLSSLTSEDSAVYYCANGDYYVAYWGQGTLVTVSA
VL: QIVLTQSPAIMSASLGERVTMTCTASSSVSSTYFHWYQQKPGSSPKLWIYSTSNLASGVPRRFSGSASGTSYSLTISSMEAEDAATYYCHQYHRSPLTFGAGTKLELK
notes: full-length IgG (ExpiCHO)
B3: AB11 (antibody, V domains shown)
VH: DVQLVESGGGLVQPRGSRKLSCAASGFTFSSFGMHWVRQAPEKGLEWVAYISSDSRTIYYADTVKGRFTISRDNPTNTLFLQMTSLRSEDTAMYYCARDYGRTYEAYWGQGTLVTVSA
VL: DIVLTQSPASLAVSLGQRATISCRASKSVSTSGYSYIHWYQQKPGQPPKLLIYLASNLESGVPARFSGSGSGTDFTLNIHPVEEEDAATYYCQHSRELPLTFGAGTKLELK
notes: full-length IgG (ExpiCHO)
B4: AB15 (antibody, V domains shown)
VH: B3 VH
VL: NIMMTQSPSSLAVSAGEKVTMSCKSSQSVLFSSNQKNYLAWYQQKPGQSPRLLIYWASTRESGVPDRFTGSGSGTDFTLTISNVQAEDLAVYYCHQYLSSRTFGAGTKLELK
notes: full-length IgG (ExpiCHO)
B5: AB12 (antibody, V domains shown)
VH: EVKLMESGGDLVKPGGSLKLSCAASGFTFSSYAMSWVRQTPEKRLEWVASIRSGGTTYYPDSVKGRFTISRDNARNILYLRMSSLRSEDTAIYYCAKVGGNPYPMDYWGQGTSVTVSS
VL: DIQMIQSPSSMFASLGDRVSLSCRASQDIGGNLDWYQQKPGGTIKLLIYSTSNLNSGVPSRFSGSGSGSDYSLTITSLESEDFADYYCLQRNAYPLTFGAGTKLELK
notes: full-length IgG (ExpiCHO)
B6: AB4 (antibody, V domains shown)
VH: QVQLQQSGAELARPGASVKMSCKASGYTFTSYTMHWIKQRPGQGQEWIGYINPSSTYTHYIKKFKDKATLTADKSSSTAYMQLRSLTSEDSAVYYCSRGELGGFAYWGQGTLVTVSA
VL: DVVMTQTPLSLPVSLGDQASISCRSSQSLVHSDGNTYLNWYLQKPGQSPKLLIYKVSNRFSGVPDRFSGSGSGTDFTLKIRRVEAEDLGVYFCSQSTHVPYTFGGGTKLEIK
notes: full-length IgG (ExpiCHO)

The first test concerns the target human Claudin-6 (CLDN6) (human) (UniProt P56747). In words: FACS titration of labelled mAb on HEK293T-CLDN6-mGFP cells.
For orientation: EC50 means the concentration that produces a half-maximal response. High values mean lower potency in that assay, low ones higher potency in that assay. In the case of B1, the EC50 amounted to 10 nM. This counts as double-digit nanomolar.

Take B2: the EC50 is 109 nM.

For the molecule B3, the EC50 is 1700 nM.

In the case of B4, the concentration giving a half-maximal response (EC50) was determined as 5000 nM. This EC50 lies about 2.9-fold higher than the previous one.

Molecule B5 showed an EC50 of 5000 nM.

In the case of B6, the EC50 amounted to 17 nM.

The next test has the same target. Description: FACS titration of labelled mAb on ARK2 cells (endogenous CLDN6+).
In the case of B1, the EC50 was 8 nM.

For B2, the EC50 was 105 nM. Against the preceding molecule, the EC50 is about 13-fold higher.

On to B3, for which the EC50 was 363 nM.

Molecule B4 displayed an EC50 of 5000 nM.

In the case of B5, the EC50 is 1300 nM. Compared with the last molecule, the EC50 is about 3.8-fold lower.

B6: the EC50 was determined as 48 nM.

The next test deals with CLDN3/4 (endogenous on LS513 or MCF7 cells). In words: FACS titration of labelled mAb on MCF7 cells (endogenous CLDN3/4+).
B1 registered an EC50 of 1480 nM.

Consider B2, for which the concentration giving a half-maximal response (EC50) stood at 5000 nM.

Take B3: the EC50 came to 427 nM.

Molecule B4 returned an EC50 of 5000 nM. This EC50 is about 12-fold higher than that of the molecule before.

B5 gave a half-maximal effective concentration (EC50) of 5000 nM. This counts as single-digit micromolar.

For the molecule B6, the EC50 worked out at 653 nM.

For the next test the target is unchanged. Description: FACS titration of labelled mAb on LS513 cells (endogenous CLDN3/4+).
Turning to B1, the EC50 is 781 nM.

Turning to B2, the EC50 was 5000 nM.

As to B3, the EC50 turned out to be 493 nM.

Turning to B4, the EC50 turned out to be 5000 nM.

In turn, B5 returned an EC50 of 2270 nM.

In the case of B6, the EC50 was determined as 730 nM.

Another test deals with human Claudin-6 (CLDN6) (human) (UniProt P56747). Description: FACS titration of labelled mAb on OVCA429 cells (endogenous CLDN6+).
B1: the EC50 is 5 nM.

For B2, the EC50 stood at 84 nM. This EC50 is about 17-fold higher than that of the molecule before.

B3 showed a concentration for a half-maximal effect (EC50) of 835 nM. Against the preceding molecule, the EC50 is about 9.9-fold higher.

Turning to B4, the EC50 turned out to be 5000 nM.

For the molecule B5, the EC50 worked out at 2290 nM.

With B6, the EC50 turned out to be 168 nM.

The target of the next test is T1, Claudin-4 (CLDN4) (human, UniProt O14493 1-209).
T1 construct: whole, on cells; also called CLDN4-GFP; CLDN4-mGFP
T1 sequence (looked up): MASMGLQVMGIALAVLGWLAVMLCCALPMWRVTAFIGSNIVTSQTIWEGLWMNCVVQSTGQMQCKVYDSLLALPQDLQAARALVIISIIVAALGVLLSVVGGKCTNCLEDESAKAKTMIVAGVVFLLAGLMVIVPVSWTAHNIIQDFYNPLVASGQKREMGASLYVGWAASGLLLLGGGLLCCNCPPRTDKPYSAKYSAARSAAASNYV
Description: FACS titration of labelled mAb on HEK293T CLDN4-mGFP cells. How it is done: (§1) CLDN6 antibodies were tested from 0.32 nM to 1000 nM (serial dilution 1:5, 6 points) in a 50 μl volume with 150,000 cells system.
(§2) CLDN6-expressing cells were used in FACS assays to determine the CLDN6 antibody's ability to bind to CLDN6 on the surface of cells and to cross-react with other CLDN family members. HEK293 T cells engineered to express human CLDN6 fused to GFP, mouse CLDN6 fused to GFP, CLDN9-GFP, CLDN4-GFP, or CLDN3-GFP, or GFP alone (without CLDN6) were used as artificial models of CLDN6 expression.
(§3) For each type of cell tested and for each mAb, cells were detached from the surface of the culture flasks by EDTA (instead of trypsin) in order to protect the cell surface proteins. The detached cells were then incubated with Alexa Fluor®-labeled CLDN6 mAbs for 30 min in the dark on ice at a pre-determined concentration. […] After washing, the cells were read by a BD Accuri™ Flow Cytometer C6 to detect antibody-antigen protein binding in channel FL4H. Each antibody was tested at varied concentrations to establish a dose-fluorescence curve. […] Cross-reactivity data were obtained using a similar methodology, but with cells having a different expression profile for CLDN6, CLDN3, CLDN4 and CLDN9.
As for B3, the EC50 stood at 2240 nM. That is a single-digit micromolar value.

In the case of B4, the half-maximal effective concentration (EC50) was ≥ 5000 nM.

As to B5, the EC50 worked out at 2090 nM.

For the next test, the target named is T2, Claudin-9 (CLDN9) (human, UniProt O95484 1-217).
T2 construct: whole, on cells; also called CLDN9-GFP; CLDN9-mGFP
T2 sequence (looked up): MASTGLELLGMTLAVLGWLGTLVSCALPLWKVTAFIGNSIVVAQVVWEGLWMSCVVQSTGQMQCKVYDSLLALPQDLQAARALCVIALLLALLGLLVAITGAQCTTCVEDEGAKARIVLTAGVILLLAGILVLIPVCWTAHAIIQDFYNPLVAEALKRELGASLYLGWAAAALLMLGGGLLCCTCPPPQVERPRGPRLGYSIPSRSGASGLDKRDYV
Description: FACS titration of labelled mAb on HEK293T CLDN9-mGFP cells. How it is done:
as §1, §2, §3
In turn, B1 displayed a half-maximal effective concentration (EC50) of 25 nM.

In turn, B2 returned an EC50 of 2760 nM. Compared with the last molecule, the EC50 is about 110-fold higher.

In turn, B5 returned an EC50 of 2470 nM.

The molecule B6 showed an EC50 of 1860 nM.

The next test has as its target T3, mouse Claudin-6 (CLDN6) (mouse, UniProt Q9Z262 1-219).
T3 construct: whole, on cells; GFP fusion on engineered HEK293T cells; also called Mouse CLDN6; murine CLDN6
T3 sequence (looked up): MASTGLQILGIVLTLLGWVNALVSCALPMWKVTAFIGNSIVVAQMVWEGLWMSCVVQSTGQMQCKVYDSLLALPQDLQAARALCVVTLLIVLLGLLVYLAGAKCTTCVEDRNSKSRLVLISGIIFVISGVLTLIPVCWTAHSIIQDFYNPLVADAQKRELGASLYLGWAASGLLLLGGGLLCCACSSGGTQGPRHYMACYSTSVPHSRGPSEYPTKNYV
Description: FACS titration of labelled mAb on HEK293T mouse CLDN6-mGFP cells. The procedure:
as §1, §2, §3
Regarding B1, the EC50 worked out at 11 nM.

The molecule B2 came in with an EC50 of 72 nM.

As to B3, the response was half-maximal at 2380 nM (EC50).

Regarding B4, the EC50 was ≥ 5000 nM.

B6: the EC50 is ≥ 5000 nM.

(Values after patent publication US20230049752A1 (University of California, published 2023).)
